Data from article PMC6232973.

Molecular target: CC1-CC2-SUN fragment of mouse SUN2 (SUN2 residues 410-731), wild type (mouse)
Experiment: SEC

Substance “CC1-CC2-SUN fragment of mouse SUN2 (SUN2 residues 410-731), wild type (domain or fragment)” has a stoichiometry N of 3.
